The values below come from the DeepSol protein solubility set.

The series is described as follows: soluble on expression in E. coli; label from the status in PepcDB or PDB records.
In the case of “MDESMRHDIALFRYGLIAPLVNGQVEPKAYLNEVGGRVHSIPHQGDKPIAAKTILDWCARYKKGGFDALKPKRRSDRGRSRRLSPDDEDHILALRKEHPTMPVTLFYEQLTKQGDIPTTLSYFTIYRLLKKHNLVGKEILPMPERKRFAYDQINELWQGDLSHGPTIRVHGKAQKTFLIAYIDDCSRLVPYAQFFPSEKFDGLRIVTKEAVLRCGKPKRIYSDNGKIYRSEVLQYACAEMGITLIHTQPYDPQSKGKIERFFRTVQTRFYPLLELNPPKSLDELNERFWKWLEEEYHRKPHASLDGKTPHEVFQSQVERVVWIEDIDWLDAIFLKREHRKVKADGTITLNKQLYEVPPRFIGQSIELRYDERGVYVYEDGKRVAEAIRVRLEDNAYVKRHRSPFAAVSAKEGEQDV”, the “soluble on expression in E. coli” value is given as “not soluble”. For “MAGIAMKLAKDREAAEGLGSHERAIKYLNQDYETLRNECLEAGALFQDPAFPPVSHSLGFKELGPNSSKTYGIKWKRPTELLSNPQFIVDGATRTDICQGALGDSWLLAAIASLTLNETILHRVVPYGQSFQEGYAGIFHFQLWQFGEWVDVVVDDLLPTKDGKLVFVHSAQGNEFWSALLEKAYAKVNGSYEALSGGCTSEAFEDFTGGVTEWYDLQKAPSDLYQIILKALERGSLLGCSINISDIRDLEAITFKNLVRGHAYSVTDAKQVTYQGQRVNLIRMRNPWGEVEWKGPWSDNSYEWNKVDPYEREQLRVKMEDGEFWMSFRDFIREFTKLEICNLTPDALKSRTLRNWNTTFYEGTWRRGSTAGGCRNYPATFWVNPQFKIRLEEVDDADDYDSRESGCSFLLALMQKHRRRERRFGRDMETIGFAVYQVPRELAGQPVHLKRDFFLANASRAQSEHFINLREVSNRIRLPPGEYIVVPSTFEPNKEGDFLLRFFSEKKAGTQELDDQIQANLPDEKVLSEEEIDDNFKTLFSKLAGDDMEISVKELQTILNRIISKHKDLRTNGFSLESCRSMVNLMDRDGNGKLGLVEFNILWNRIRNYLTIFRKFDLDKSGSMSAYEMRMAIEAAGFKLPCQLHQVIVARFADDELIIDFDNFVRCLVRLEILFKIFKQLDPENTGTIQLDLISWLSFSVLGKLAAAIEHHHHHHMHYSNIEANESEEERQFRKLFVQLAGDDMEVSATELMNILNKVVTRHPDLKTDGFGIDTCRSMVAVMDSDTTGKLGFEEFKYLWNNIKKWQGIYKRFETDRSGTIGSNELPGAFEAAGFHLNQHIYSMIIRRYSDETGNMDFDNFISCLVRLDAMFRAFRSLDKNGTGQIQVNIQEWLQLTMYS” the value was “soluble”; for “MPAYKYNRVFLIVMDSVGIGEAPDAADFNDEGAHTLGHIAEHMNGLHMPNMAKLGLGLIEDIKGVEKTEHPLAYYGKLQEASNGKDTMTGHWEIMGLYIDKPFKVFPEGFPDELLQELEKRSGRKIIGNKPASGTAILDELGQEHMETGALIVYTSADSVLQIAAHEEVVPLEELYRICETARELTLDPKYMVGRIIARPFVGEPGQFKRTPNRHDYALKPFDRTVMNELKDCGLDVISIGKISDIYDGEGITSSRRTVSNMDGMDKVIDTLGEDFTGLSFANLVDFDALFGHRRDPEGYGRALEEFDARLPEVFGKMREDDLLIITADHGNDPIHHGTDHTREYVPILAYSKKHKKAQMLPLADTFADIGATIADNFQTNKPKYGKSFLSLLQ”, “not soluble”. For “MSLAFRTLSFGIKRSQPKKKDADDLNKKKELSTITEESLRRYDELREKMIGKVESKIEKKVKKNKKKASIEILASRKRVHDSDGDSENEVEETVGDVEKRMQKLLDDIRRTNRIFTWGDHLPNIILRFSDSSMSPSLLNRLSENSIRQPSPIQMQSIPFMTERRNVLASAPTGSGKTLAFALPVIDEILELKQRADYSSSNSSKLLAVVLEPTRELAAQTYTEFLKYCANTSISAANFSGEETDIQHADILVSTPNRIVFHLDKIDTSSLRWLVVDESDRLFEVVEGQDKCFRNQLAAIYKACDAKCTRVAFFSATFSHEVEKWCKENIDEIGMVCVGERNSSNTSVKQKLTYCGTEDGKKIAIRNLLRTSFKPPALVFVQSKDRAVQLVKLLSAIDSNLKVDSINSGKSDKERDETMERFRRGEIWVLVCTELLGRGLDLSDVGLVINYDLPTSIVSYIHRVGRTGRAGKSGHAVTYFTDADMKYIKSIATVIRQSGFDVPEYLMEMKKVSRDRKKDMLKHAPKRHKIAIVKEQVIKKKKMLAKAAAEEKAKNKTETQTAEKPEKKIKKKKLIKKNNKNI” the value was “not soluble”; for “MGLIIYHKGGRKMKKNILIVGGGPEITICYDLINNSTEYNFFSVSEIPTMYPELFVETIETSFRNFGKTIEQIKELKYSIDAVACWDEALTHIADDISKELGLNPISSLDSQSFRFKDRMRMVCEAGGLKMPKYKIINQFSDTNKIINWKYPLIVKPTSFLASIGVKKVYNFSELQQAVSQMLNVKFPVYIASGVYELGELYNLEPRVLVEEFIDGEEYSLESVVRNGIYTPLGITKKIVDEKLFMDEIGHIFPSNLNKEEKSRVYSWAEKLHQILQLNHITTHTEFRIGRNGDIILIEIGARIGGDCIPNLMKNSFIVKGFDFYNTYLKARLGLQEELNTDTNKFSGIVFFRLNPENYGKIFNGVSYDAPKTSLIFEEKIYKKEGTVLPNPINWSNERVGYVCLENKEYAVLEKEMKEILKSLSIE”, “not soluble”. For “YSFIGSPVFSREFNISEMREYYLSFFEARGHTRINRYPVVARWRDDIYLTIASIADFQPFVTSGQVPPPANPLTISQPCIRLNDLDSVGRSGRHLTNFEMMAHHAFNRRDNEIYWKEHTLELCDELLNSLKVNPLAVTYKEEPWAGGGNAGPCVEVIVHGLELATLVFMDLKTDKKGDIEIKGETYSKMDNYIVDTGYGLERFVWASRGSPTIYDALFPGIVNELMGLAGIEHELNDSEYANI” the value was “not soluble”.

In the case of “AHHHHHHGSSVEVPLNPITRSEIHQLESILLFATLFRPEVIELIKDPAERLTWVDSLAVAAGAIAREKAGMTVSEIARELGRTEQTIRKHLKGESKAGQLVRETYELIKQGKLDELIKTIEMIEKGGLREVVAKEEYEKLLQEYEKLKQEYEAIKEKVEAAELESLEKAKEEIENLKKKLQKLEEEKKELEKELKEQKVKLIEYEAKAKRAEELENKVKELEQLAKESEELKKKLEEVQAEAEKAKELENRIKELEEEITKLKDGIKKAKEILESLL”, the “soluble on expression in E. coli” value is “not soluble”.

As for “SLTTTEVVMENVTAFWEEGFGELFEKAKQNNNNRKTSNGDDSLFFSNFSLLGTPVLKDINFKIERGQLLAVAGSTGAGKTSLLMMIMGELEPSEGKIKHSGRISFCSQFSWIMPGTIKENIIFGVSYDEYRYRSVIKACQLEEDISKFAEKDNIVLGEGGITLSGGQRARISLARAVYKDADLYLLDSPFGYLDVLTEKEIFESCVCKLMANKTRILVTSKMEHLKKADKILILHEGSSYFYGTFLELYHYPADRFVAGFIGSPKMNFLPVKVTATAIDQVQVELPMPNRQQVWLPVESRDVQVGANMSLGIRPEHLLPSDIADVILEGEVQVVEQLGNETQIHIQIPSIRQNLVYRQNDVVLVEEGATFAIGLPPEDCHLFREDGTACRRLHKEPGV”, the “soluble on expression in E. coli” value was “soluble”. Take “MSLSWRLQTGSEKAELQELNARLYDYVCRVRELERENLLLEEELRSRLSREDRWAEDQALYAEEARSLRQQLDELNWSTALAEGERDALRRELLELQREGVEAGTARSRLDAELGAQRRELEEALGARAALEALLGRLETERRDLDAAHERQVRDLRARAASLTMHFRARATSPAAPPPRLRDVHDSYALLVAESWRESVQLYEDEVRELEQALRRGQESRLQAEDEARLCAQEADALRNQALELEQLRARLEDELLRMREEYGMQAEERQRVIDSLEDEKEALTLAMADRLRDYQELLQVKTGLSLEVATYRALLEGESNPEILIWTENIENVPQEPRNTSYRYTNSVLQRKNEKNLFPRREGHHHHHH”: the “soluble on expression in E. coli” value was “not soluble”. The result for “CTCSPSHPQDAFCNSDIVIRAKVVGKKLVKEGPFGTLVYTIKQMKMYRGFTKMPHVQYIHTEASESLCGLKLEVNKYQYLLTGRVYDGKMYTGLCNFVERWDQLTLSQRKGLNYRYHLGCN” reads “soluble”; that for “MGSDKIHHHHHHMNSHWSEYWQQGHTTSFGEALSGNYEGVLKNVWEPVFDGLTENFLVVDVGTGNGSLPLLLRDGLSKVDLTGKVIGVDLAEVTLANSVSNNNQNIDIALMSNTRCEQLPFESNSVDLYISQFGFEYSNIEQSLEEATRVLKDDGQFVIVCHHNRSMILNRNRRILTLIDKDEVNLLINCLGKMANAMGNVSNQEDVERIKKDLQCEQIRAEINDLIKLLVMFDEAAAQDCDLMRFVAQFFKAGLFWPVTKKLEFIEFITIQMDTLKLRLTELVNAAFDETKLATFIAKFHQNNMVLNELKVLKNEQNEVLGWYLHGSKFI”, “not soluble”.
